Laboratory results as given in the RNAGym collection of RNA variant scans (doi:10.7554/elife.90254).

B1: LINE1-full (parent)
chain: UACGUAGGUGGUUUUCCCCUGAUAGUGCUAAGGGGGCCUGGAAGUUUGGACUGGGCAGAGCUCAACACAGCGUGGCAAAGUGGCUGUGGCUAGACUGCCUCUCUGGAUUCCUCGUCACUCAGCAGGGCAUCUCUGAGAGAAAUGCC

Variants of: B1
Experiment: self-cleavage, relative activity (ratio to wild type); higher = more cleavage; in vitro, sequencing; the parent is a self-cleaving ribozyme

Row | Variant | self-cleavage
1 | UACGUAGGUGGUUUUCCCCUGAUAGUGCUAAGGGGGCCUGGAAGUUUGGACUGGGCAGAGCUCAACACAGCGUGGCAAAGUGGCUGUGGCUUGACUGCCUCUCUGGAUUCCUCGACACUCAGCAGGGCAUCUCUGAGAGAAAUGCC [A92U U115A] | 0.62
2 | UACGUAGGUGGUUUUCCCCUGAUAGUGCUAAGGGGGCCUGGAAGUUUGGACUGGGCAGAGCUCAACACAGCGUGGCAAAGUGGCUGUGGCUAGACUGCCUCUCUGGAUUCCUCGUCAUUCAGCAGGGCAUCCCUGAGAGAAAUGCC [C118U U132C] | 1.81
3 | UACGUAGGUGGUUUUCCCCUGAUAGUGCUAAGGGGGCCUGGAAGUUUGGACUGGGCAGAGCUCAACACAGCGUGGCAAAGUGGCUGGGGCUAGACUGCCUCUCUGGAUUCCUCGUCACUCAGCAGGGCAUCUCUGAGUGAAAUGCC [U87G A138U] | 0.48
4 | UACGUAGGUGGUUUUCCCCUGACAGUGCUAAGGGGGCCUGGAAGUUUGGACUGGUCAGAGCUCAACACAGCGUGGCAAAGUGGCUGUGGCUAGACUGCCUCUCUGGAUUCCUCGUCACUCAGCAGGGCAUCUCUGAGAGAAAUGCC [U23C G55U] | 0.22
5 | UACGUAGGUGGUCUUCCCCUGAUAGUGCUAAGGGGGCCUGGAAGUUUGGAGUGGGCAGAGCUCAACACAGCGUGGCAAAGUGGCUGUGGCUAGACUGCCUCUCUGGAUUCCUCGUCACUCAGCAGGGCAUCUCUGAGAGAAAUGCC [U13C C51G] | 1.44
6 | UACGUAGGUGGUUUUCCCCUGAUAGUGCUAAGGGGGCCUGGAAGUUUGGACUGGGCAGAGCUCAACACAGCGUGGCAAAGUGGCCGUGGCUAGACUGCCUCUCUGGAUUCCACGUCACUCAGCAGGGCAUCUCUGAGAGAAAUGCC [U85C U112A] | 0.19
7 | UACGUAGGUGGUUUUCCCCUGGUAGUGCUAAGGGGGCCUGGAAGUUUGGACUGGGCAGAGCUCAACACAGCGUGACAAAGUGGCUGUGGCUAGACUGCCUCUCUGGAUUCCUCGUCACUCAGCAGGGCAUCUCUGAGAGAAAUGCC [A22G G75A] | 1.13
8 | UACGUAGGUGGUUUUCCCCUGAUAGUGCUAAGGGGGCCUGGAAGUUUGGACUGGGCAGAGCUCAACACAGCGUGGCAAAGUGGCUGUGGCUAGACUGCCUCUCUGGAUUCCUCGUCACUCAGCAGGGCAUCUCUGUGAGAAAUGCC [A136U] | 1.23
9 | UACGUAGGUGGUUUUCCCCUGAUAGUACUAAGGGGGCCUGGAAGUUUGGACUGGGCAGAGCUCAACACAGCGUGGCAAAGUGGCUGUGGCUAGACUGCCUCUCUGGAUUCCUCGUCACUCAGCAGGGCAUCUCUGAGCGAAAUGCC [G27A A138C] | 1.18
10 | UACGUAGGUGGUUUUCCCCUGAUAGUGCUAAGGGGGCCAGGAAGUUUGGACUGGGCAGAGCUCAACACAGCGUGGCAAAGUGGCUGUGGCUAGACUGCCUCUCUGGGUUCCUCGUCACUCAGCAGGGCAUCUCUGAGAGAAAUGCC [U39A A107G] | 1.42
11 | UACGUAGGUGGUUUUCCCCUGAUAGUGCUAAGGGGGCCCGGAAGUUUGGACUGGGCAGAGCUCAACACAGCGUGGCAUAGUGGCUGUGGCUAGACUGCCUCUCUGGAUUCCUCGUCACUCAGCAGGGCAUCUCUGAGAGAAAUGCC [U39C A78U] | 1.42
12 | UACGUAGGUGGUUUUCCCCUGAUGGUGCUAAGGGGGCCUGGAAGUUUGGACUGGGCAGAGCUCAACACAGCGUGGCAAAGUGGCUGUGGCUGGACUGCCUCUCUGGAUUCCUCGUCACUCAGCAGGGCAUCUCUGAGAGAAAUGCC [A24G A92G] | 0.2
13 | UACGUAGGGGGUUUUCCCCUGAUAGUGCUAAGGGGGCCUGGAAGUUUGGACUGGGCAGAGCUCAACACAGCGUGGCAAAGUGGCUGUGGCUAGACUGCCUCUCUGGAUUCCUCGCCACUCAGCAGGGCAUCUCUGAGAGAAAUGCC [U9G U115C] | 0.29
14 | UACGUAGGUGGUUUUCCCCUGAUAGUGCUAAGGGGGUCUGGAAGUUUGGACUGGGCAGAGCUCAACACAGCGUGGCAAAGUGGCUGUGGCUAGACUGCCUCUCUGGAUUCCUCGUCACUCAGCAGGGCAUCUCUGAGAGAAGUGCC [C37U A142G] | 1.52
15 | UACGUAGGUGGUUUUCCCCUGAUAGCGCUAAGGGGGCCUGGAAGUUUGGACUGGGCAGAGCUCAACACAGCGUGGCAAAGUGGCUGUGGCUAGACUGCCUCUCUUGAUUCCUCGUCACUCAGCAGGGCAUCUCUGAGAGAAAUGCC [U26C G105U] | 1.57
16 | UACGUAGGUGGUUUUCCCCUGAUAGUGCUAAGGGGGCCUGGAAGUUUGGACUGGGCAGAGCUCAACACAGCGUGGCUAAGUGGCUGUGGCUAGACUGCCUCUCUGGAUUCCUCGUCACUCAGCAUGGCAUCUCUGAGAGAAAUGCC [A77U G125U] | 1.5
17 | UACGUAGGUGGUUUUCCCCUGAUAGUGCUAAGGGGGCCUGGAAGUUUGGACUAGGCAGAGCUCAACACAGCGUGGCAAAGUGGCUGUGGCUAGACUGCCUCUCUGGAAUCCUCGUCACUCAGCAGGGCAUCUCUGAGAGAAAUGCC [G53A U108A] | 0.14
18 | UACGUAGGUGGUUUUCCCCUGAUAGUGCUAAGGGGGCCUGGAAGUUUGGACUGGGCAGAGCUCAACACAGCGUGGCAAAGUGGCUGUGGCUAGACUGCCUCCCUGGAUUCCUCGUCACUCUGCAGGGCAUCUCUGAGAGAAAUGCC [U102C A121U] | 2.05
19 | UACGUAGGUGGUUUUCCCCUGAUAGUGCUAAGGGGGCCUGGAAGUUUGGACUGGGCAGAGCUCAACACAGCGUGGCAAAGUGGCUGUGGAUAGACUGCCUCUCUGGAUUCCUCGUCACUCAGCAGGGCAUCUCUGAGAGAGAUGCC [C90A A141G] | 0.03
20 | UACGUAGGUGGUUUUCCCCUGAUAGUGCUAAGGGGGCCUGGAAGUUUGGGCUGGGCAGAGCUCAACACAGCGUGGCAAAGUGGCUGUGGCCAGACUGCCUCUCUGGAUUCCUCGUCACUCAGCAGGGCAUCUCUGAGAGAAAUGCC [A50G U91C] | 0.35

Row | Variant | self-cleavage
21 | UACGUAGGGGGUUUUCCCCUGAUAGUGCUAAGGGGGCCUGGAAGUUUGGACUGGGCAGAGCUCAACACAGCGUGGCAAAGUGGCUGUGGCUAGACUGCCUCUCUGGAUUCCUCGUCACUCAGCAGGGCAUCUCUGAGAGAAAUGCU [U9G C146U] | 1.29
22 | UACGUAGGUGGUUUUCCCCUGAUAGUGCUAAGGGGGCCUGGAAGUUUGGACUGGGCAGAGCUCAACACAGCGUGGCAAAGUGGCUGUGGCUAGACUGCCUCUCUGGAUUCCUCGCCACUCAGCAGGGCAUCUCUGAGAGAAACGCC [U115C U143C] | 1.61
23 | UACGUAGGUGGUUUUCCCCUGAUAGUGCUAAGGGGGCCUGGAAGUUUGGACUGGGCAGAGCUCAACACUGCGUGGCAAAGUGGCUGUGGCUAGACUGCCUCUCUGGAUUCCACGUCACUCAGCAGGGCAUCUCUGAGAGAAAUGCC [A69U U112A] | 0.04
24 | UACGUAGGUGGUUUUCCCCUGAUAGUGCUAAGGGGGCCUGGAAGUUUGGACUGGGCAGAGCUCAACACAGCGUGGCAAAGUGGCUGUGGCUAGACUGCCUCUCUGGAUUCCUCGUCACCCAGAAGGGCAUCUCUGAGAGAAAUGCC [U119C C123A] | 1.36
25 | UACGUAGGUGGUUUUCUCCUGAUAGUGCUAAGGGGGCCUGGAAGUUUGGACUGGGCAGAGCUCAACGCAGCGUGGCAAAGUGGCUGUGGCUAGACUGCCUCUCUGGAUUCCUCGUCACUCAGCAGGGCAUCUCUGAGAGAAAUGCC [C17U A67G] | 0.34
26 | UACGUAGGUGGUUUUCCCCUGAUAGUGCUAAGGGGGCCUGGAAGUUUGGACUGGGCAGAGCUCAACACAGCGUGGCAAAGUGGCUGUGGCUAGGCUGCCUCUCUUGAUUCCUCGUCACUCAGCAGGGCAUCUCUGAGAGAAAUGCC [A94G G105U] | 0.2
27 | UACGUAGGUGGUUUUCCCCUGAUAGUGCUAAGGGGGCCUGGAAGUUUGGACUGGGCAGAGCUCAUCACAGCGUGGCAAAGUGGCUGUGGCUAGACUGCCUCUCUGGAUUCCUCGUCACUCGGCAGGGCAUCUCUGAGAGAAAUGCC [A65U A121G] | 0.21
28 | UACGUAGGUGGUUUUCCCCUGAUAGUGCUAAGGGGGCCUGGAAGUUUGGACUGGGCAGAGCUCAACACAGCGUGGCAAAGUGGCUGUGGCUAGACUGCCUCUCUGGAUUCCUCGUCACUCAGCGGGGCAUCUCUGGGAGAAAUGCC [A124G A136G] | 1.14
29 | UACGUAGGUGGUUUUCCCCUGAUAGUGCUAAGGGGGCCUGGAAGUUUGGACUGGGCAGAGCUCAACACAGCGUGGCAAAGUGGCUGUGGCCAGACUGCCUCUCUGGAUUCCUCGUCACGCAGCAGGGCAUCUCUGAGAGAAAUGCC [U91C U119G] | 1.53
30 | CACGUAGGUGGUUUUCCCCUGAUAGUGCUAAGGGGCCCUGGAAGUUUGGACUGGGCAGAGCUCAACACAGCGUGGCAAAGUGGCUGUGGCUAGACUGCCUCUCUGGAUUCCUCGUCACUCAGCAGGGCAUCUCUGAGAGAAAUGCC [U1C G36C] | 1.26
31 | UACGUAGGUGGUUUUCCCCUGAUAGUGCUAAGGGGGCCUGGAAGUCUGGACUGGGCAGAGCUCAACACAGCGUGGCAAAGUGGUUGUGGCUAGACUGCCUCUCUGGAUUCCUCGUCACUCAGCAGGGCAUCUCUGAGAGAAAUGCC [U46C C84U] | 0.2
32 | UACGUAGGUGGUUUUCCCCUGAUAGUGCUAAGGGGGCCUGGAAGUUUGGACUGGGCAGAGCUCAACACAGCGUGGCAAAGUGGCUGUGGCUAGACUGCCUCUCUGGAUUCCUCGUCACUCAGCAGGGCAUAUCUAAGAGAAAUGCC [C131A G135A] | 1.55
33 | UACGUAGGUGGUUUUCCCUUGAUAGUGCUAAGGGGGCCUGGAAGUUUGGACUGGGCAGAGCUCAGCACAGCGUGGCAAAGUGGCUGUGGCUAGACUGCCUCUCUGGAUUCCUCGUCACUCAGCAGGGCAUCUCUGAGAGAAAUGCC [C19U A65G] | 0.14
34 | UACGUAGGUGGUUUUCCCCUGAUAGUGCUAAGGGGGCCUGGAAGUUAGGACUGGGCAGAGCUCAACACAGCGUGGCAAAGUGGCUGUGGCUAGACUGCCUCUCUGGAUUCCUCGUCACUCAGCAGGUCAUCUCUGAGAGAAAUGCC [U47A G127U] | 1.67
35 | UACGUAGGUGGUUUUCCCCUGAUAGUGCUAAGGGGGCCUGGAAGUUUGGACUGGGCAGAGCUCAACACAGUGUGGCAAAGUGGCUGUGGAUAGACUGCCUCUCUGGAUUCCUCGUCACUCAGCAGGGCAUCUCUGAGAGAAAUGCC [C71U C90A] | 0.04
36 | UACGUAGGAGGUUUUCCCCUGAUAGUGCUAAGGGGGCCUGGAAGUUUGGACUGGGCAGAGCUCAACACAGCGUGGCAAAGUGGCUGUGGCUAGACUGCCUCUCUGGAUUCCUCGUUACUCAGCAGGGCAUCUCUGAGAGAAAUGCC [U9A C116U] | 0.95
37 | UACGUAGGUGGUUUUCCCCUGAUAGUGCUAAGGGGGACUGGAAGUUUGGACUGGGCAGAGCUCAACACAGCGUGGCAAAGUGGCUGUGGCUAGACUGCCUCUCUGGAUUCCUCGUCACUCAGCAGGGCAUCUCUGAGAGAAACGCC [C37A U143C] | 0.75
38 | UACGUAGGAGGUUUUCCCCUGAUAGUGCUAAGGGGGCCUGGAAGUUUGGACUGGGCAGAGCUCAACACAGCGUGGCGAAGUGGCUGUGGCUAGACUGCCUCUCUGGAUUCCUCGUCACUCAGCAGGGCAUCUCUGAGAGAAAUGCC [U9A A77G] | 1.61
39 | UACGUAGGUGGUUUUCCCCUGAUAGUGCUAAGGGGGCCUGGCAGUUUGGACUGGGCAGAGCUCAACACAGCGUGGCAAAGUGGCUGUGGCUAGACUGCCUCUCUGGAUUCCUCGUCACUCAGCGGGGCAUCUCUGAGAGAAAUGCC [A42C A124G] | 0.79
